Measurements: publication PMC11705820
Positions count from the first letter of the chain named.

Key:
[1] = target: T1, MexR wild-type (Pseudomonas aeruginosa clinical isolate Pae d1 Green) (UniProt P52003); assay: EMSA
T1 sequence: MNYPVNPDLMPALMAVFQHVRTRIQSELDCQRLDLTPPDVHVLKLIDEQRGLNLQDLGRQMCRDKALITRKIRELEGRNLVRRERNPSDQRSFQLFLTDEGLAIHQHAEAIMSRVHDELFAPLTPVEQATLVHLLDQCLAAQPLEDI

[2] = target: T2, MexR Gln55Pro Q55P (Pseudomonas aeruginosa clinical isolate Pae d14 Green) (UniProt P52003); assay: EMSA
T2 sequence: T1 sequence with Q55P

Sequence: GTTGCATAGCGTTGTCCTCATGAGCGAAAGCGGCCGATGCAGCGTGAAGGCGCTGCACCGGCTCGAAGAAGGCAGGCAAAATACTTACATTCATAGGTGTTTGTAAACGTCCGAAAGCCTCGCGTGAAAACACCTGAAACGTTTTAGCTCGATGGCCGGTTATCCACCCGGCGCCATGGCCCATATTCAGAACCTGAAACAAGGTTGATAAGGTCAACTAAAATAAGCAAAATAGTTGACTGGATCAACCACATTTACATTAGGTTTACTCGGCCAAACCAATGAACTACC (double strand) [mexR-mexAB intergenic region 291 bp]
- binding [1]: binds
- binding [2]: no binding
